Laboratory results taken from PMC4230594 (Molecular Biology of the Cell, 2014).

Target: T1, HA-Rlf (mouse, UniProt Q61193 1-778)
T1 sequence (looked up): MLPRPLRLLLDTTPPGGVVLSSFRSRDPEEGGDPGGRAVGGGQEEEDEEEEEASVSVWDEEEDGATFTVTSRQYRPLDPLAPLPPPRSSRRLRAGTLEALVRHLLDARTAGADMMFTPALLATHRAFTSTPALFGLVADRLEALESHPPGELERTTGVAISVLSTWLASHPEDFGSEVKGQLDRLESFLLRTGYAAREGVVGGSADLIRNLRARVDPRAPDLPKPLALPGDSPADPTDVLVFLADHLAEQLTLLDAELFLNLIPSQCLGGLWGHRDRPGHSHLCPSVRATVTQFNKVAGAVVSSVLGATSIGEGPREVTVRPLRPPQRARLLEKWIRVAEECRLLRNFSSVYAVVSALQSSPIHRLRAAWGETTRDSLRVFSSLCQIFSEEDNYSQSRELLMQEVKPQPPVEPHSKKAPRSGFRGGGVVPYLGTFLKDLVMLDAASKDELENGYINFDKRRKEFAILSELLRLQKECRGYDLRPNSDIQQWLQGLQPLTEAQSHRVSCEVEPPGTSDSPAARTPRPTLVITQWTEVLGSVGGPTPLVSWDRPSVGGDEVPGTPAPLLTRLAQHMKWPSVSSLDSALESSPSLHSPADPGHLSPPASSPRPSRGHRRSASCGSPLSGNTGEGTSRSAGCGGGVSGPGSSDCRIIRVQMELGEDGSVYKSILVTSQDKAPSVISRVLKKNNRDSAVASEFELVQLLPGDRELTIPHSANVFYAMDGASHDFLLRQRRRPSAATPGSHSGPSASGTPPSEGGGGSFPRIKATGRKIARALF
Experiment: co-IP

B1: Myc-Rab10 (QL) (natural protein, UniProt P61026 1-200, looked up)
chain: MAKKTYDLLFKLLLIGDSGVGKTCVLFRFSDDAFNTTFISTIGIDFKIKTVELQGKKIKLQIWDTAGLERFHTITTSYYRGAMGIMLVYDITNGKSFENISKWLRNIDEHANEDVERMLLGNKCDMDDKRVVPKGKGEQIAREHGIRFFETSAKANINIEKAFLTLAEDILRKTPVKEPNSENVDISSGGGVTGWKSKCC
For B1, the “fold binding against wild-type Rab10” value was 2 fold.
